Measured values from PMC3225930.

Key:
α-chymotrypsin [1] = target: α-chymotrypsin
trypsin [2] = target: trypsin
trypsin [3] = assay: enzyme inhibition kinetics (reciprocal plots); trypsin with substrate H-D-Phe-Pip-Arg-pNA (S-2238, 0-2 mM), 50 mM Tris-HCl pH 7.8, 25 °C; Spi1C pre-incubated with the enzyme for 15 min; pNA read at 405 nm; Spi1C at 0, 22.7, 45.4 and 68.1 nmol/L in the Lineweaver-Burk plots
α-chymotrypsin [4] = assay: enzyme inhibition kinetics (reciprocal plots); α-chymotrypsin with substrate N-benzoyl-tyrosine ethyl ester (BTEE, 0-2 mM), 50 mM Tris-HCl pH 7.8, 25 °C; read at 253 nm; Spi1C at 0, 22.7, 45.4 and 68.1 nmol/L in the Lineweaver-Burk plots

“recombinant Spi1C protein (natural protein)” gave a specific inhibitor activity (inhibition of α-chymotrypsin activity) (α-chymotrypsin [1]) of 3640 U/mg, a specific inhibitor activity (inhibition of trypsin activity) (trypsin [2]) of 6940 U/mg and a Ki (trypsin [3]) of 15.2 nM. It also gave a Ki (α-chymotrypsin [4]) of 17.9 nM.
